Test results: patent US20110166062A1 (INDIANA UNIVERSITY RESEARCH AND TECHNOLOGY, published 2011)
Where no end group is shown, it is not given here. [ ]: non-standard residue; d: D form. The star is where a group is joined. PEG 40 kDa = PEG (40 kDa) covalently attached to Cys; Myristoyl = CCCCCCCCCCCCCC(=O)*; Octanoyl = CCCCCCCC(=O)*; Aib = CC(C)(N)C(=O)O

B1: mt-257 (peptide)
peptide: Y[Aib]QGTFTSDYSIYLDKQAA[Aib]EFVCWLLAG-NH2
modifications: N-terminus assumed
SMILES: CC[C@H](C)[C@H](NC(=O)[C@H](CO)NC(=O)[C@H](Cc1ccc(O)cc1)NC(=O)[C@H](CC(=O)O)NC(=O)[C@H](CO)NC(=O)[C@@H](NC(=O)[C@H](Cc1ccccc1)NC(=O)[C@@H](NC(=O)CNC(=O)[C@H](CCC(N)=O)NC(=O)C(C)(C)NC(=O)[C@@H](N)Cc1ccc(O)cc1)[C@@H](C)O)[C@@H](C)O)C(=O)N[C@@H](Cc1ccc(O)cc1)C(=O)N[C@@H](CC(C)C)C(=O)N[C@@H](CC(=O)O)C(=O)N[C@@H](CCCCN)C(=O)N[C@@H](CCC(N)=O)C(=O)N[C@@H](C)C(=O)N[C@@H](C)C(=O)NC(C)(C)C(=O)N[C@@H](CCC(=O)O)C(=O)N[C@@H](Cc1ccccc1)C(=O)N[C@H](C(=O)N[C@@H](CS)C(=O)N[C@@H](Cc1c[nH]c2ccccc12)C(=O)N[C@@H](CC(C)C)C(=O)N[C@@H](CC(C)C)C(=O)N[C@@H](C)C(=O)NCC(N)=O)C(C)C
B2: mt-277 (peptide)
peptide: Y[Aib]QGTFTSDYSIYLDKQAA[Aib]EFVNWLLAGGPSSGAPPPSK(Myristoyl)-NH2
modifications: N-terminus assumed
SMILES: CCCCCCCCCCCCCC(=O)NCCCC[C@H](NC(=O)[C@H](CO)NC(=O)[C@@H]1CCCN1C(=O)[C@@H]1CCCN1C(=O)[C@@H]1CCCN1C(=O)[C@H](C)NC(=O)CNC(=O)[C@H](CO)NC(=O)[C@H](CO)NC(=O)[C@@H]1CCCN1C(=O)CNC(=O)CNC(=O)[C@H](C)NC(=O)[C@H](CC(C)C)NC(=O)[C@H](CC(C)C)NC(=O)[C@H](Cc1c[nH]c2ccccc12)NC(=O)[C@H](CC(N)=O)NC(=O)[C@@H](NC(=O)[C@H](Cc1ccccc1)NC(=O)[C@H](CCC(=O)O)NC(=O)C(C)(C)NC(=O)[C@H](C)NC(=O)[C@H](C)NC(=O)[C@H](CCC(N)=O)NC(=O)[C@H](CCCCN)NC(=O)[C@H](CC(=O)O)NC(=O)[C@H](CC(C)C)NC(=O)[C@H](Cc1ccc(O)cc1)NC(=O)[C@@H](NC(=O)[C@H](CO)NC(=O)[C@H](Cc1ccc(O)cc1)NC(=O)[C@H](CC(=O)O)NC(=O)[C@H](CO)NC(=O)[C@@H](NC(=O)[C@H](Cc1ccccc1)NC(=O)[C@@H](NC(=O)CNC(=O)[C@H](CCC(N)=O)NC(=O)C(C)(C)NC(=O)[C@@H](N)Cc1ccc(O)cc1)[C@@H](C)O)[C@@H](C)O)[C@@H](C)CC)C(C)C)C(N)=O
B3: mt-285 (peptide)
peptide: Y[Aib]EGTFTSDKSIYLDKQAA[Aib]EFVNWLLAG-NH2
modifications: N-terminus assumed
SMILES: CC[C@H](C)[C@H](NC(=O)[C@H](CO)NC(=O)[C@H](CCCCN)NC(=O)[C@H](CC(=O)O)NC(=O)[C@H](CO)NC(=O)[C@@H](NC(=O)[C@H](Cc1ccccc1)NC(=O)[C@@H](NC(=O)CNC(=O)[C@H](CCC(=O)O)NC(=O)C(C)(C)NC(=O)[C@@H](N)Cc1ccc(O)cc1)[C@@H](C)O)[C@@H](C)O)C(=O)N[C@@H](Cc1ccc(O)cc1)C(=O)N[C@@H](CC(C)C)C(=O)N[C@@H](CC(=O)O)C(=O)N[C@@H](CCCCN)C(=O)N[C@@H](CCC(N)=O)C(=O)N[C@@H](C)C(=O)N[C@@H](C)C(=O)NC(C)(C)C(=O)N[C@@H](CCC(=O)O)C(=O)N[C@@H](Cc1ccccc1)C(=O)N[C@H](C(=O)N[C@@H](CC(N)=O)C(=O)N[C@@H](Cc1c[nH]c2ccccc12)C(=O)N[C@@H](CC(C)C)C(=O)N[C@@H](CC(C)C)C(=O)N[C@@H](C)C(=O)NCC(N)=O)C(C)C
B4: mt-323 (peptide)
peptide: Y[Aib]QGTFTSDYSIYLDKQAA[Aib]EFVNWLLAGGPSSGAPPPSK(Octanoyl)-NH2
modifications: N-terminus assumed
SMILES: CCCCCCCC(=O)NCCCC[C@H](NC(=O)[C@H](CO)NC(=O)[C@@H]1CCCN1C(=O)[C@@H]1CCCN1C(=O)[C@@H]1CCCN1C(=O)[C@H](C)NC(=O)CNC(=O)[C@H](CO)NC(=O)[C@H](CO)NC(=O)[C@@H]1CCCN1C(=O)CNC(=O)CNC(=O)[C@H](C)NC(=O)[C@H](CC(C)C)NC(=O)[C@H](CC(C)C)NC(=O)[C@H](Cc1c[nH]c2ccccc12)NC(=O)[C@H](CC(N)=O)NC(=O)[C@@H](NC(=O)[C@H](Cc1ccccc1)NC(=O)[C@H](CCC(=O)O)NC(=O)C(C)(C)NC(=O)[C@H](C)NC(=O)[C@H](C)NC(=O)[C@H](CCC(N)=O)NC(=O)[C@H](CCCCN)NC(=O)[C@H](CC(=O)O)NC(=O)[C@H](CC(C)C)NC(=O)[C@H](Cc1ccc(O)cc1)NC(=O)[C@@H](NC(=O)[C@H](CO)NC(=O)[C@H](Cc1ccc(O)cc1)NC(=O)[C@H](CC(=O)O)NC(=O)[C@H](CO)NC(=O)[C@@H](NC(=O)[C@H](Cc1ccccc1)NC(=O)[C@@H](NC(=O)CNC(=O)[C@H](CCC(N)=O)NC(=O)C(C)(C)NC(=O)[C@@H](N)Cc1ccc(O)cc1)[C@@H](C)O)[C@@H](C)O)[C@@H](C)CC)C(C)C)C(N)=O

These binders were tested against glucagon receptor (UniProt P47871 26-477, limits assumed) (assay: cell-based or functional assay).
glucagon receptor, sequence (P47871 26-477 limits assumed): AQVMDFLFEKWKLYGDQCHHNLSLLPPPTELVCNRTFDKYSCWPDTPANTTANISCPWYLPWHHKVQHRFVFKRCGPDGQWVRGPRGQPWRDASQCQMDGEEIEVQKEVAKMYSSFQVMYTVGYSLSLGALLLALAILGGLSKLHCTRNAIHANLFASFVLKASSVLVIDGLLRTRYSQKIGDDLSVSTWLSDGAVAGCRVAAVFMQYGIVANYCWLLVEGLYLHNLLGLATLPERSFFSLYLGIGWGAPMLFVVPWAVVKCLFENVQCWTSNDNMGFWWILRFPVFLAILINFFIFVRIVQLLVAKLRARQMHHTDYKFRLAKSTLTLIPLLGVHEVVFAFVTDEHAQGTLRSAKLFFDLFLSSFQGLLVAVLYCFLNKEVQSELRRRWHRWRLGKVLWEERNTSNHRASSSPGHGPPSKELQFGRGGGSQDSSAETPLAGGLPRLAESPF

In order of falling “EC50” value:
1. Y[Aib]EGTFTSDKSIYLDKQAA[Aib]EFVCWLLAGGPSSGAPPPS-NH2 (also: C-terminal amidation listed at position 40 of 39-residue chain) [mt-338]  295 nM
2. Y[Aib]EGTFTSDK(Myristoyl)SIYLDKQAA[Aib]EFVCWLLAGGPSSGAPPPS-NH2 (also: C-terminal amidation listed at position 40 of 39-residue chain) [mt-337]  106 nM
3. Y[Aib]EGTFTSDYSIYLDKQAA[Aib]EFVNWLLAGGPSSGAPPPSC(PEG 40 kDa)-NH2 [mt-295]  87.3 nM
4. Y[Aib]EGTFTSDYSIYLDKQAA[Aib]EFVNWLLAGGPSSGAPPPSC-NH2 [mt-256]  58.9 nM
5. Y[Aib]EGTFTSDYSIYLDKQAA[Aib]EFVNWLLAGGPSSGAPPPSK-NH2 [mt-263]  3.18 nM
6. Y[Aib]QGTFTSDYSIYLDKQAA[Aib]EFVC(PEG 40 kDa)WLLAG-NH2 [mt-281]  0.282 nM
7. B1  0.211 nM

These binders were tested against GLP-1 receptor (UniProt P43220 24-463, limits assumed) (assay: cell-based or functional assay).

B2 was tested, and the “EC50” value was 0.0086 nM.

Each binder was assayed against T1, GIP receptor (UniProt P48546 22-466) (assay: cell-based or functional assay).
T1 sequence (looked up): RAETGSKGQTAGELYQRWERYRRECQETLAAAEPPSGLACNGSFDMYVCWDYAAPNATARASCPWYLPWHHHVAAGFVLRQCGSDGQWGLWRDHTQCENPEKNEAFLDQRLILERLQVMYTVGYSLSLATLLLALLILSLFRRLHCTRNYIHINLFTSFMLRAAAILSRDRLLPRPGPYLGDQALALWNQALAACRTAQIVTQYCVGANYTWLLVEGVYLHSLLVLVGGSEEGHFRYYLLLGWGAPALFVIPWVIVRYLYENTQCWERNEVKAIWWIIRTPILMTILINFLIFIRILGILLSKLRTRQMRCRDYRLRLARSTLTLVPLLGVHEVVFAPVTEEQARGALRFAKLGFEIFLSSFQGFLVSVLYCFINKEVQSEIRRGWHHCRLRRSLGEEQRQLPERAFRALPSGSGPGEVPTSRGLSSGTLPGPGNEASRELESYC

In order of rising “EC50” value:
1. Y[Aib]EGTFTSDYSIYLDKQAA[Aib]EFVNWLLAGGPSSGAPPPSK-NH2 [mt-263]  0.0031 nM
2. B2  0.0052 nM
3. Y[Aib]EGTFTSDK(Myristoyl)SIYLDKQAA[Aib]EFVCWLLAGGPSSGAPPPS-NH2 (also: C-terminal amidation listed at position 40 of 39-residue chain) [mt-337]  0.008 nM
4. B4  0.0084 nM
5. Y[Aib]EGTFTSDKSIYLDKQAA[Aib]EFVCWLLAGGPSSGAPPPS-NH2 (also: C-terminal amidation listed at position 40 of 39-residue chain) [mt-338]  0.0234 nM
6. B3  0.028 nM
